Experimental data: the nanobody polyreactivity screen of Harvey et al. (2022)

Assay: yeast display, Sf9 membrane polyspecificity reagent, FACS + sequencing; frameworks hold sequencing errors
How it was run: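 In a synthetic yeast display library (Saccharomyces cerevisiae BJ5465), nanobody expression was induced with galactose for 36–48 hours. FACS gates were set low and high (top ~1%) using anti-HA fluorescence for expression and streptavidin fluorescence for binding of the Sf9 membrane reagent. Each polyreactivity label is drawn from the gate of origin.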

Sequence	polyreactivity (PSR sort gate)
QVQIVESGGGLVQAGGSLRLSCAASGSILLYYPIGWYRQAPAKEREWVARITGSGSRTYYADSVKGRFTISRDNAKNTVFVQMHSVKPEDNAVYYCAADFSGHGWESVVGYGYWGQGTQVTVSS	low polyreactivity
QVQLVESGEGLVQAGGRLRLSCAPSGSTFMTYAMGWYRQAPGKERELVAAIRWSGGGTYYADSVKGRFTISRDNAKNTVYLQMNSLKPEDTAVYYGAADHFNYTPGRDYWGQGTQVTVSS	low polyreactivity
QVQLVESGGGLVQAGGSLRLICAASGFIMRPYTMGWYRQAPGKERELVAAITSGGRTYYADSVKGRFTISRDNAKNTVYLQMNSLKPEDTAVYYCAALTYYRTVRTFSYPYDYWGQGTQVTVSS	high polyreactivity
QVQLVESGGGLVQAGGSLRLSCAASGNIFYDYGMGWYRQAPGKERELVAGISSVDHTYYADSVKGRFTISRDNAKNTVYLQMNSLKPEDTAVYYCARDTELYVRWLDYWGQGTQVTVSS	low polyreactivity
QVQLVESGGGLVQAGGSLRLSCAASGSTFDSYAMGRYRQAPGKERELVAAITNGGSTYYADSVKGRFTISRDNAKNTVYLQMHSLKPEDTAGYYCATDDYLLDNLYDYWGQGTQVTVSS	low polyreactivity
QVQLVESGAGLVQAGGSLRLSCAASGFTFQYYAMGWYRQAPGKERELVATISSTDNTYYADSVKGRFTISRDNAKNTVYLQMNSLKPEDTAVYYCAARPTYRRRQGRGYWGQGTQVTVSS	high polyreactivity
QVQLVESGGGLVQAGGSLRLSCAASGFTLYPYAMGWYRPAPGKERELVAAISGSGGSTYYADSVKGRFTISRDNAKNTVYLQMNSLKPEDTAVYYCAARGPQQWWWDDDYWGQGTQVTVSS	high polyreactivity
QDQLVESGGGLVQEGGSLRLSCAASGRTFKHYVMGWYRQAPGKERELVATICGGGGTYYADSVKGRFTISRDNAKNSVYLQMISLKPEDTAVYYCAARYPRGSRTWSFDSNKQRDYWGQGTQVTVSS	low polyreactivity
QVQLVESGGGLVQAGGSLRLSCAASGRTFHRYTMGWYRPAPGKERELVAAISRNGGSTYYADSVKGRFTISRDNAKNTVYLQMNSLKPEDTAVYYCNKPYWSDDYYSWGQGTQVTVSS	high polyreactivity
QVQLVESGGGLVQAGGSLRLICYASGSIFWVYAMGWYRQAPGKEWELVADIRYRDGSTHYADSVKGRFTISRDNAKNTVYLQMNSLKPEDTAVYYCAADDLPSTGYDYWGPGTQVTVSS	low polyreactivity
QGQLVESGGGLVQAGGSLRLSCAASGFTFQYYAMGWYRQAPGKDRELVAALSSSGGRTFYADSVKGRFTISRDNAKNTVYLQMNSLKAEDTAVYYCAAVWYGFLYYYWGQGTQVTVSS	high polyreactivity
QVQLVESGGGLVQAGGSLRLSCAASGRIFYTNAMGWYRQAPGKESELVAVISWGGDTTYYADSVKGRFTISRDNAKYTVYLQMNSLKPDDTADYYFNADWGPTYEIYDSWGQGTQVTVSS	low polyreactivity
QVQLVESGGGLVQAGGSLRLSCAASGFIFTIYAMGWYRQAPRKERELVAAITWNGGRTYYADSVKGRFTISRDNAKNTVYLQMISLKPEDTAVYYCAARYGRAYDYWGQGTQVTVSS	high polyreactivity
QVQLVESGGGLVQAGGSLRLSCAASGRTFIRYCMGWYRQAPGKERELVAAITSRGGRTYYADSVKGRFTISRDNAKNTVYLQMNSLIREDTAVYYCAADTTWYSRYRHLWYRYYYWGQGTQVTVSS	high polyreactivity
QVQLVESGGGFVQAGGSLRLSCAASGRTFGHNDMGWYIQAPGKERELVATNSADGSTNYADSVKGRITISRDNEKKTVKLQMNSLKPEDTAVSYCAKDYQYVAYDYWGQGTQVTVSS	low polyreactivity
QVQLVESGGGLVQAGGSLRLSCAASGRTFSPYMGWYRQAPGKEGELVAAISKSGGRTYYADSVKGRFTISRDNAKNTVYLQMNSLKPEDTAVYYCATTGNNYYYALYGYWGQGTQVTVSS	low polyreactivity
QVQLVESGGGLVQAGGSLRLSCAASGYTFLAYAMGWYRQAPGKERELVAAISSGGRTYYADSVKGRFTISRDNAKNTVYLQMHSLKREDTAVYYCAAYPLRYRQYWGFVYWGQGTQVTVSS	high polyreactivity
QVQLGESGGGLVQAGGSLRLSCAASGSTFGGYAMGWYRQAPGKERELVAAISSSGTSTYYADSVKGRFTISRDNAKNTVYLQMNSLKPDDTAVYYCATDFSFFSRFDYWGQGTQVTVSS	low polyreactivity
QVQLVESGGGLVQAGGSLRLSCAASGFIFHFNAMGWYRQAPGKERELVAAISRTGGTTYYADSVKGRFTISRDNAKNTVYLQMNSLKPEVTAVYYCAAYSTYVQHYDYWGQGTQVTVSS	high polyreactivity
QVQLVESGGGLVQAGGSLRLSCAASGFIFADNAMGWYRQAPGKERELVAGITSGGITNYADSVKGRFTISRDNAKNTVYLQMNSLKQVDTAVYYCAVYYRRWFSRYDYWGQGTQVTVSS	low polyreactivity
QVQLVESGGGLVQAGGSLRLSCAASGRIFGGNAMGWYRQAPGKERELVAAITSGGGSTSYADSVKGRFTISRDNAKNTVYLQMNSLKPEDTAVYYCAAPATYGPFVIDTVYPRDGYWGQGTQVTVSS	low polyreactivity
QVQLVESGGGLVQAGGSLRLSCAASGGTFGSYARGWYRQAPGNEREFVAAIRRGTSTYYADSVQGRFTISRDNAKNTVYLQMNRLKPEDTEVYYCAATPQAHSERYYYQRKYDYWGQGTQVTVSS	low polyreactivity

Sequence	polyreactivity (PSR sort gate)
QVQLLESGGGLVKAGGSLRLSCAASGFTFYRYAMGWYRQAPGKERELVATINYSGGGTYYADSVKGRFTISRDNAKHTVYLQMNSLKPEDTAVYDCAAEDFDYAVLYDYWGQGTQVTVSS	high polyreactivity
QVQLVESGGRLVQAGGSLRISCAASGRTFRYYAKGWYRQAPGKERELVAAISSRGTRTYYADSVKGRFTISRDNAKNTGYLQMNSLKPEDTAVYYCATRYYQELAYDFWGQGTQVIVSS	high polyreactivity
QVQLVESGGGLVQAGGSLRLSCAASGSTFYKYGMGWYRQAPGTERELVAAISGSGDSTYYADSVKGRFTISRDNAKNTVYLQMNSLKPEDTAVYYCNAGPWWYLHEYDYWGQGTQVTVSS	low polyreactivity
QVQLVESGGGLVQAGGSLRLSCAASGSTFSSYAMGWYRQAPGKERELVAAINWSRTRTYYADSVKGRFTISRDNAKNTVYFQMNSVIPEDTAVYYCAAPGFGETADYDYWGHGTQVTVSS	low polyreactivity
QVQLVESWGGLDQAGGSLRLSCAASGIIFQYYAMGWYRQAPGKERELVAAISWSGGSTYYADSVKGRFTISRDNAKNTVYLQMNSLKPEDTAVYYCAARSRSYWPYEGDYWGQGSQVTVSS	low polyreactivity
QVQLVESGGGLVQAGGSLRLSCAASGGIFHPNDMGWYRQAPGKESELVAVIDSGDITNYADSVKGRFTISRDNAKNTVYLQMNSLKPEDTAVYYCAADSYSYFTDDHGYWGQGTQVTVSS	high polyreactivity
QVQLVESGGGLVQAGGSLRLSCAASGSTFAFNAMGWYRPAPGKERELVASISGSGSSTYYADSVKGRFTISRDNAKNTVYLQMNSLKPEDTAVYYCAARVGARVSPPRRHGRFNYWGQGTQVTVSS	high polyreactivity
QVQLVESGGGLVQAGGSLRLSCAASGITIGRNTMGWSRQAPRKERELVAAIDSGGNTYADSVKGRFSISRDNAMNTVYLQMNSLKPEDTAVYYCAVDGGEFSSYGFWGQGTQVTVSS	low polyreactivity
QVQLVESGGGLVQAGGSLRLSCAASGSTFGEYAMGWYRQAPGKERELVAVITSDDNTYYADSVKGRFTISRDNAKNTVYLQMNSLKPEDTAVYYCAARGYVLARSQQWRREYYWGQGTQVTVSS	high polyreactivity
QVQLVESGGGLVQAGGSLRLSCAASGRTFGWYTKGWYRQAPGKERELVAAISRSGTSTYYADSVKGRFTISRDNAKNTVYLQMNSLKPEDTAVYYCAAGPWAYGRRHSYYSYGYWGQVTQVTVSS	high polyreactivity
QVQLVESGGGLVQAGGSLRLSCAASGSTFNRYAMGWYRQAPGKERELVAAITRSGTSTYYADSVKGRFTISRDNAKNTVYLQMNSLKPEDTAVYYCAAVRYAVHFSYDYWGQGTQVTVSS	high polyreactivity
QVHLVESGGGLVQAGGSLRLSCAASGRTFILNAMGWYRQAPGKERELVAAISWSGGSTYYADSVKGRFTISRDNAKNTVYLQMNSLKPEDTAVYYCAKDSPGDGIGYGYWGQGTQVTVSS	low polyreactivity
QVQLVESGGGLVQAGGSLRLSCAASGSTFGYYGMGWYRQAPGKERELVAAISTGGRTNYADSVKGRFTISRDNAKNTVYLQMNSLKPEVTAVYYCAADFLCTAYRPSWYRFDYWGQGTQVTVSS	low polyreactivity
QVQLVESGGGLVQAGGSLRLSCAASGSTFYYYAMGWYRQAPGKERELVAAITYSGGGTYYADSVKGRFTISRDNAKNTFYLQMNSLKPEDTAVYYCAKTIAVNTWYYYWGQGTQVTVSS	low polyreactivity
HVQLVESGGRLVQAGGSLRLSCAASGIIFGYYAMGWYRQAPGNERELVAAIDWTGGNTYYADSVKGRFRISRDIAKNTVYLQMNSLKPEDTAVYYCAADYYSQEDYWGQGTQVTVSS	low polyreactivity
QVQLVESGGGLVQAGGSLRLSCAASGSTIGYNAMGWYRQAPGKERELVAAISGSGTDTRYADSVKGRFTISRDNAKNTFYLQMNSRNPEDTAVYYCAVSVVYRGSKRVRQNPMEYWGQGTQVTVSS	high polyreactivity
QVQLVESGGGLVQAGGSLRLSCAASGNTIDSYAMGWYRQAPGKERELVAAISTSGGSTYYADSVKGRFTISRDNAKNTVYLQMNSLKPEDTAVYYCNATWTITYDYWGQGTQVTVSS	low polyreactivity
QVQLVESGGGLVQAGGSLRLSCAASGFIFGSNAMGWYRQAPGKERELVAAISRSGGSTYYADTVKGRFTISRDNAKNTVYLQMNSLKPEDTAVYYCNVDLWPFVYSWWSYDYWGQGTQVTVSS	high polyreactivity
QVQLVESGGGLVQAGGSLRLSCAASGSIFFAYVMGWYRQAPGKERELDAVITYSGGSTYYADSVKGRFTISRDNAKNTVYLQMNSLKPEDTAVYDCAADETSALDDYWGQGTQVTVSS	low polyreactivity
QVQLVESGGGLVQAGGSLRLSCAASGRIFYGYAMGWYRQAPGKERELVAAITRGGSTYYADSVKGRFTISRDNAKNTVYLQMNSLKPEDTAVYYCAAVIYSYRSYREYGYWGQGTQVTVSS	high polyreactivity
QVQLVESGGGLVQAGGSLRLSCAASGITLGYSAMGGYRQAPGKEREFVAGITTSGGTTYYADSVKGRFTISRDNAKNTVYLQMNSLKPEDTAVYYCAVYGGVKRGSFYYWGQGTQVTVSS	low polyreactivity
